Data reported in patent publication US20180009871A1 (INTARCIA THERAPEUTICS, published 2018).
Where no end group is shown, it is not given here. [ ]: non-standard residue; d: D form. Aib = CC(C)(N)C(=O)O

Assays:
[1] = molecular target: human glucagon receptor (GCGR) (human, UniProt P47871 26-477); assay: cell-based or functional assay
[2] = molecular target: human GLP-1 receptor (GLP-1R) (human, UniProt P43220 24-463); assay: cell-based or functional assay
Sequence of human GLP-1 receptor (GLP-1R) (P43220 24-463): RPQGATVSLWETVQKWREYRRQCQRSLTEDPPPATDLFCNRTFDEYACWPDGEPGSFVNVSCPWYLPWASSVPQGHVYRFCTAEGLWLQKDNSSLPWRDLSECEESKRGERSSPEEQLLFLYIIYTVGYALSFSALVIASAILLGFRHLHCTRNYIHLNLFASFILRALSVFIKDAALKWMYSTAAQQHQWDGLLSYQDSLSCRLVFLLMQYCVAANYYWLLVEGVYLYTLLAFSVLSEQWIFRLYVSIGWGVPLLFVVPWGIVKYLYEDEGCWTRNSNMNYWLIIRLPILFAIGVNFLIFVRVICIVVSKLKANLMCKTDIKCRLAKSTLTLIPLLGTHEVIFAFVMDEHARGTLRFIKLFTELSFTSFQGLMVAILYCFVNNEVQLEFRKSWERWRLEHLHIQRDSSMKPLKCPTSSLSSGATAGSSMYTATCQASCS

Binder	hGCGR pEC50 (cAMP) [1] [pEC50]	hGLP1 pEC50 (cAMP) [2] [pEC50]
YSHGTFTSDYSKYLD[Aib]KTAQEFV[Aib]WLEDEPSSGAPPPS-OH (N-terminus assumed; SMILES CC(C)C[C@H](NC(=O)[C@H](Cc1ccc(O)cc1)NC(=O)[C@H](CCCCN)NC(=O)[C@H](CO)NC(=O)[C@H](Cc1ccc(O)cc1)NC(=O)[C@H](CC(=O)O)NC(=O)[C@H](CO)NC(=O)[C@@H](NC(=O)[C@H](Cc1ccccc1)NC(=O)[C@@H](NC(=O)CNC(=O)[C@H](Cc1c[nH]cn1)NC(=O)[C@H](CO)NC(=O)[C@@H](N)Cc1ccc(O)cc1)[C@@H](C)O)[C@@H](C)O)C(=O)N[C@@H](CC(=O)O)C(=O)NC(C)(C)C(=O)N[C@@H](CCCCN)C(=O)N[C@H](C(=O)N[C@@H](C)C(=O)N[C@@H](CCC(N)=O)C(=O)N[C@@H](CCC(=O)O)C(=O)N[C@@H](Cc1ccccc1)C(=O)N[C@H](C(=O)NC(C)(C)C(=O)N[C@@H](Cc1c[nH]c2ccccc12)C(=O)N[C@@H](CC(C)C)C(=O)N[C@@H](CCC(=O)O)C(=O)N[C@@H](CC(=O)O)C(=O)N[C@@H](CCC(=O)O)C(=O)N1CCC[C@H]1C(=O)N[C@@H](CO)C(=O)N[C@@H](CO)C(=O)NCC(=O)N[C@@H](C)C(=O)N1CCC[C@H]1C(=O)N1CCC[C@H]1C(=O)N1CCC[C@H]1C(=O)N[C@@H](CO)C(=O)O)C(C)C)[C@@H](C)O) [Compound A77]	11.5	< 9
YSHGTFTSDYSKYLDSARAQEFVKWLEDEPKSKEPPPS-OH [Compound A69]	11.8	< 9
YSHGTFTSDYSKYLD[Aib]ARAQEFV[Aib]WLEDEPKSKEPPPS-NH2 (N-terminus assumed; SMILES CC(C)C[C@H](NC(=O)[C@H](Cc1ccc(O)cc1)NC(=O)[C@H](CCCCN)NC(=O)[C@H](CO)NC(=O)[C@H](Cc1ccc(O)cc1)NC(=O)[C@H](CC(=O)O)NC(=O)[C@H](CO)NC(=O)[C@@H](NC(=O)[C@H](Cc1ccccc1)NC(=O)[C@@H](NC(=O)CNC(=O)[C@H](Cc1c[nH]cn1)NC(=O)[C@H](CO)NC(=O)[C@@H](N)Cc1ccc(O)cc1)[C@@H](C)O)[C@@H](C)O)C(=O)N[C@@H](CC(=O)O)C(=O)NC(C)(C)C(=O)N[C@@H](C)C(=O)N[C@@H](CCCNC(=N)N)C(=O)N[C@@H](C)C(=O)N[C@@H](CCC(N)=O)C(=O)N[C@@H](CCC(=O)O)C(=O)N[C@@H](Cc1ccccc1)C(=O)N[C@H](C(=O)NC(C)(C)C(=O)N[C@@H](Cc1c[nH]c2ccccc12)C(=O)N[C@@H](CC(C)C)C(=O)N[C@@H](CCC(=O)O)C(=O)N[C@@H](CC(=O)O)C(=O)N[C@@H](CCC(=O)O)C(=O)N1CCC[C@H]1C(=O)N[C@@H](CCCCN)C(=O)N[C@@H](CO)C(=O)N[C@@H](CCCCN)C(=O)N[C@@H](CCC(=O)O)C(=O)N1CCC[C@H]1C(=O)N1CCC[C@H]1C(=O)N1CCC[C@H]1C(=O)N[C@@H](CO)C(N)=O)C(C)C) [Compound A68]	11.3	< 9
YSHGTFTSDYSKYLDSARAQEFVKWLEDEPKSKEPPPS-NH2 [Compound A72]	12.1	< 9
YSHGTFTSDYSKYLDSARAQEFVKWLEDEPKSKSPPPS-OH [Compound A70]	12	< 9
WSHGTFTSDYSKYLD[Aib]KRAQEFV[Aib]WLEDEPSSGAPPPS-OH (N-terminus assumed; SMILES CC(C)C[C@H](NC(=O)[C@H](Cc1ccc(O)cc1)NC(=O)[C@H](CCCCN)NC(=O)[C@H](CO)NC(=O)[C@H](Cc1ccc(O)cc1)NC(=O)[C@H](CC(=O)O)NC(=O)[C@H](CO)NC(=O)[C@@H](NC(=O)[C@H](Cc1ccccc1)NC(=O)[C@@H](NC(=O)CNC(=O)[C@H](Cc1c[nH]cn1)NC(=O)[C@H](CO)NC(=O)[C@@H](N)Cc1c[nH]c2ccccc12)[C@@H](C)O)[C@@H](C)O)C(=O)N[C@@H](CC(=O)O)C(=O)NC(C)(C)C(=O)N[C@@H](CCCCN)C(=O)N[C@@H](CCCNC(=N)N)C(=O)N[C@@H](C)C(=O)N[C@@H](CCC(N)=O)C(=O)N[C@@H](CCC(=O)O)C(=O)N[C@@H](Cc1ccccc1)C(=O)N[C@H](C(=O)NC(C)(C)C(=O)N[C@@H](Cc1c[nH]c2ccccc12)C(=O)N[C@@H](CC(C)C)C(=O)N[C@@H](CCC(=O)O)C(=O)N[C@@H](CC(=O)O)C(=O)N[C@@H](CCC(=O)O)C(=O)N1CCC[C@H]1C(=O)N[C@@H](CO)C(=O)N[C@@H](CO)C(=O)NCC(=O)N[C@@H](C)C(=O)N1CCC[C@H]1C(=O)N1CCC[C@H]1C(=O)N1CCC[C@H]1C(=O)N[C@@H](CO)C(=O)O)C(C)C) [Compound A75]	11.3	< 9
YSHGTFTSDYSKYLDSARAQEFVKWLEDEPKSKAPPPS-NH2 [Compound A74]	11.6	< 9
YSHGTFTSDYSKYLDSARAQEFVKWLEDEPKSKAPPPS-OH [Compound A71]	11.7	< 9
YSHGTFTSDYSKYLD[Aib]KAAQEFV[Aib]WLEDEPSSGAPPPS-OH (N-terminus assumed; SMILES CC(C)C[C@H](NC(=O)[C@H](Cc1ccc(O)cc1)NC(=O)[C@H](CCCCN)NC(=O)[C@H](CO)NC(=O)[C@H](Cc1ccc(O)cc1)NC(=O)[C@H](CC(=O)O)NC(=O)[C@H](CO)NC(=O)[C@@H](NC(=O)[C@H](Cc1ccccc1)NC(=O)[C@@H](NC(=O)CNC(=O)[C@H](Cc1c[nH]cn1)NC(=O)[C@H](CO)NC(=O)[C@@H](N)Cc1ccc(O)cc1)[C@@H](C)O)[C@@H](C)O)C(=O)N[C@@H](CC(=O)O)C(=O)NC(C)(C)C(=O)N[C@@H](CCCCN)C(=O)N[C@@H](C)C(=O)N[C@@H](C)C(=O)N[C@@H](CCC(N)=O)C(=O)N[C@@H](CCC(=O)O)C(=O)N[C@@H](Cc1ccccc1)C(=O)N[C@H](C(=O)NC(C)(C)C(=O)N[C@@H](Cc1c[nH]c2ccccc12)C(=O)N[C@@H](CC(C)C)C(=O)N[C@@H](CCC(=O)O)C(=O)N[C@@H](CC(=O)O)C(=O)N[C@@H](CCC(=O)O)C(=O)N1CCC[C@H]1C(=O)N[C@@H](CO)C(=O)N[C@@H](CO)C(=O)NCC(=O)N[C@@H](C)C(=O)N1CCC[C@H]1C(=O)N1CCC[C@H]1C(=O)N1CCC[C@H]1C(=O)N[C@@H](CO)C(=O)O)C(C)C) [Compound A76]	12.7	< 9
YSHGTFTSDYSKYLDSARAQEFVKWLEDEPKSKSPPPS-NH2 [Compound A73]	11.7	< 9
